Results as given in patent US12072338B2, “Pharmaceutical peptides for the treatment of inflammatory diseases” (PROTAGONISTS LTD., priority 2007, dated 2024).

Legend:
[1] = target: T1, Exodus-2 (Homo sapiens, UniProt O00585); assay: Micro-array analysis of chemokine binding peptides: Exodus-2
T1 construct: purchased 300-35
T1 sequence (O00585 24-134): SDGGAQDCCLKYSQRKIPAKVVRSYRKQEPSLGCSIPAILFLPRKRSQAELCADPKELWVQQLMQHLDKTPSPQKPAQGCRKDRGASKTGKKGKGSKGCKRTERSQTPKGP
Method in brief: (§1)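 Chemokines printed at 25 and 50 μg/ml on protein microarray slides, blocked, then probed 1 h at RT with peptide-displaying recombinant phage (10^7 pfu/μl). Bound phage detected with mouse anti-M13 then Cy3 anti-mouse IgG. Cy3 fluorescence scanned, reported as relative fluorescence versus chemokine concentration.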

[2] = target: T2, SDF1-β (Homo sapiens, UniProt P48061); assay: Micro-array analysis of chemokine binding peptides: SDF1-β
T2 construct: purchased 300-28b
T2 sequence (P48061 22-93): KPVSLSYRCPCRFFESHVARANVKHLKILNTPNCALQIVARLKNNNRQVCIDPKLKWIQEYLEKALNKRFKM
Method in brief: as §1

[3] = target: T3, TECK (Homo sapiens, UniProt O15444); assay: Micro-array analysis of chemokine binding peptides: TECK
T3 construct: purchased 300-45
T3 sequence (O15444 24-150): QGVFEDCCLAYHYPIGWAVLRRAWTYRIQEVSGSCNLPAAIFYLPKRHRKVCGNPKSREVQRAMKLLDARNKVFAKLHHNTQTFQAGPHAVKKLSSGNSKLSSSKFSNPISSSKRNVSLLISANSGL
Method in brief: as §1

[4] = target: T4, I-TAC (Homo sapiens, UniProt O14625); assay: Micro-array analysis of chemokine binding peptides: I-TAC; settings: limit = start of the upper 75% of that peptide's response range
T4 construct: purchased 300-46
T4 sequence (O14625 22-94): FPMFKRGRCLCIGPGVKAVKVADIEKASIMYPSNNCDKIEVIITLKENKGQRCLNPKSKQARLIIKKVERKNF
Method in brief: as §1

[5] = target: T5, SDF1-α (Homo sapiens, UniProt P48061); assay: Micro-array analysis of chemokine binding peptides: SDF1-α
T5 construct: purchased 300-28a
T5 sequence (P48061 22-89 limits assumed): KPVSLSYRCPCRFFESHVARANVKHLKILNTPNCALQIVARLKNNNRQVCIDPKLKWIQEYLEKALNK
Experimental: (§2) (1) Printing: Chemokine (CK) solution (in water) was serially diluted with Print Reagent (GenTel BioSurfaces USA) to final concentrations of 50 μg and 25 μg/ml. BSA/BSA-Biotin control solutions (in water) were diluted with Print Reagent to 100 μg/ml. Amplified stock of M13 phage control (M13KEgIII Cloning Vector, New England Biolabs, Cat.No.E8101S) was stored in Tris Buffered Saline (TBS; pH7.5, 4° C.) and diluted with Print Reagent to the working titre (10^8 pfu/μl). An automated spotting robot (16 pin print tool, 0.4 mm head; BioRobotics, UK) was used to print the CK/BSA control/M13 control, 5 repeats per sample (CK 25 μg/ml and 50 μg/ml; BSA 100 μg/ml; M13 20 μl), on PATH Protein Microarray Slides (GenTel, Prod.No. 2-1005/-1025) at […], and 50-70% relative humidity. Printed micro-array slides were stored at Room Temperature (RT) or 4° C. for at least 24 h before use.
(§3) (2) Blocking: Block Buffer (500 μl/partition; PATHblock, GenTel, Prod.No. 2-1014) was applied to the slide for 1 hour at room temp (RT). After removal of Block Buffer, the slide was air dried for 25 minutes;
(§4) (3) Phage Presented Peptide Binding: Amplified recombinant phage stock was stored in TBS and diluted with Wash Buffer to working titer (10^7 pfu/μl). Recombinant phage suspension (300 μl) was applied per partition and incubated at RT for 1 hour with gentle agitation.
(§5) (4) First Washing: The slides were washed twice with Wash Buffer 300 μl/partition).
(§6) (5) Primary Antibody (Ab) Labeling: The slides were incubated with the Primary Ab (1 mg/ml diluted ×2500 (Wash Reagent), 300 μl; Mouse Anti-M13 monoclonal Ab; Amersham Biosciences, UK; Product Code 27-9420-01) for 45 minutes at RT.
(§7) (6) Second Washing: The slides were washed twice with Wash Buffer (300 μl/partition).
(§8) (7) Secondary Ab Labeling: The slides were incubated with Secondary Ab (1.5 mg/ml diluted ×5000 (Wash Reagent), 300 μl; Cy3-conjugated AffiniPure Goat Anti-Mouse IgG; Jackson ImmunoReserch Labs, USA; Product Code 115-165-062).
(§9) (8) Third Washing: The slides were washed twice with Wash Buffer (300 μl/partition).
(§10) (9) Rinse: the slides were rinsed twice with Rinse Buffer (PATHrinse, GenTel, Prod.No. 2-1018) then dried well.
(§11) (10) Scanning: The peptide-bound, labeled slide was scanned (Laser Intensity 80%, Gain 80%, Resolution 10 μm) with a ScanArray Life Scanner (Packard BioChip Technologies, USA).
(§12) (11) Analysis: Quantitative analysis of micro-array was performed by the SpotReader program of Niles Scientific (USA) and presented as Relative Fluorescence (RF) as a function of CK concentration. Micro-array readout (Cy3 fluorescence) was quantified to determine the relative binding affinities of a CBP for the CKs and by inference, the specificity of the CBP for binding to a CK.

[6] = target: T6, C-TAC (Homo sapiens, UniProt Q9Y4X3); assay: Micro-array analysis of chemokine binding peptides: C-TAC
T6 construct: purchased 300-54
T6 sequence (Q9Y4X3 25-112): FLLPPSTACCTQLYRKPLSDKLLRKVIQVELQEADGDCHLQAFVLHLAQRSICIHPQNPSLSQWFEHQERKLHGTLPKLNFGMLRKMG
Experimental: as §2, §3, §4, §5
(5) Primary Antibody (Ab) Labeling: The slides were incubated with the Primary Ab (1 mg/ml diluted ×2500 (Wash Reagent), 300 μl; Mouse Anti-M13 monoclonal Ab; Amersham Biosciences, UK; Product Code 27-9420-01) for 45 minutes at RT. […]
as §12

[7] = target: T7, IP-10 (Homo sapiens, UniProt P02778); assay: Micro-array analysis of chemokine binding peptides: IP-10; settings: limit = start of the upper 75% of that peptide's response range
T7 construct: purchased 300-12
T7 sequence (P02778 22-98): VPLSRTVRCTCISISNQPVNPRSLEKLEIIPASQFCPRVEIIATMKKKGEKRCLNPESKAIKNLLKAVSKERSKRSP
Method in brief: as §1

[8] = target: T8, Eotaxin 3 (Homo sapiens, UniProt Q9Y258); assay: Micro-array analysis of chemokine binding peptides: Eotaxin 3; settings: limit = start of the upper 75% of that peptide's response range
T8 construct: purchased 300-48
T8 sequence (Q9Y258 24-94): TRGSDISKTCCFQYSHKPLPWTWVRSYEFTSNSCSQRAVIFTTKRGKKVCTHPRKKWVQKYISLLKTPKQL
Method in brief: as §1

[9] = target: T9, BCA-1 (Homo sapiens, UniProt O43927); assay: Micro-array analysis of chemokine binding peptides: BCA-1
T9 construct: purchased 300-47
T9 sequence (O43927 23-109): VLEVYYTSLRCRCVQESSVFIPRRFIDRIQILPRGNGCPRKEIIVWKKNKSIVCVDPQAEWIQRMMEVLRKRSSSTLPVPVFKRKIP
Method in brief: as §1

[10] = tested on: IL-8; assay: Micro-array analysis of chemokine binding peptides: IL-8; settings: limit = start of the upper 75% of that peptide's response range
Sequence of IL-8 (P10145 28-99 limits assumed): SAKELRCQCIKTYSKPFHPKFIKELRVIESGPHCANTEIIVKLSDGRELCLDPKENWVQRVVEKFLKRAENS
Method in brief: as §1

[11] = target: T10, I-309 (Homo sapiens, UniProt P22362); assay: Micro-array analysis of chemokine binding peptides: I-309; settings: limit = start of the upper 75% of that peptide's response range
T10 construct: purchased 300-37
T10 sequence (P22362 24-96): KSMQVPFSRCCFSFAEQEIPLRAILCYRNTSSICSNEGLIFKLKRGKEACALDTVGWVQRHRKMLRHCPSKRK
Method in brief: as §1

[12] = target: T11, Fractalkine (Homo sapiens, UniProt P78423); assay: Micro-array analysis of chemokine binding peptides: Fractalkine
T11 construct: purchased 300-31
T11 sequence (P78423 25-100 limits assumed): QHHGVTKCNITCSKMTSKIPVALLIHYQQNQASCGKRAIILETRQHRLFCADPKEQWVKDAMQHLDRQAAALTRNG
Method in brief: as §1

[13] = target: T12, Mig (Homo sapiens, UniProt Q07325); assay: Micro-array analysis of chemokine binding peptides: Mig; settings: limit = start of the upper 75% of that peptide's response range
T12 construct: purchased 300-26
T12 sequence (Q07325 23-125): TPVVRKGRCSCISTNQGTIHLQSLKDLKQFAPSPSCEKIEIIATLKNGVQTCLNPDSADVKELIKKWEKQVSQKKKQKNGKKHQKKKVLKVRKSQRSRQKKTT
Method in brief: as §1

[14] = target: T13, MCP-4 (Homo sapiens, UniProt Q99616); assay: Micro-array analysis of chemokine binding peptides: MCP-4; settings: limit = start of the upper 75% of that peptide's response range
T13 construct: purchased 300-24
T13 sequence (Q99616 17-98): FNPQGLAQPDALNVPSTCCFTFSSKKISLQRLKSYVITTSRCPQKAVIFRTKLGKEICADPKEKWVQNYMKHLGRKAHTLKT
Method in brief: as §1

[15] = target: T14, MCP-2 (Homo sapiens, UniProt P80075); assay: Micro-array analysis of chemokine binding peptides: MCP-2; settings: limit = start of the upper 75% of that peptide's response range
T14 construct: purchased 300-15
T14 sequence (P80075 24-99): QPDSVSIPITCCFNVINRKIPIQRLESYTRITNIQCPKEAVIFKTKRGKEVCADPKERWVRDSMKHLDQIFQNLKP
Method in brief: as §1

[16] = target: T15, Lymphotactin (Homo sapiens, UniProt P47992); assay: Micro-array analysis of chemokine binding peptides: Lymphotactin
T15 construct: purchased 300-20
T15 sequence (P47992 22-114): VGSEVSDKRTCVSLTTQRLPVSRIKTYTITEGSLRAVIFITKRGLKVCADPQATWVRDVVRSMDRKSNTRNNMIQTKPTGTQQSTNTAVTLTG
Method in brief: as §1

[17] = target: T16, Eotaxin (Homo sapiens, UniProt P51671); assay: Micro-array analysis of chemokine binding peptides: Eotaxin; settings: limit = start of the upper 75% of that peptide's response range
T16 construct: purchased 300-21
T16 sequence (P51671 24-97): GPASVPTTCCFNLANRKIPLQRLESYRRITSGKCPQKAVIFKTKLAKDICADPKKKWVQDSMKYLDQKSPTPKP
Method in brief: as §1

[18] = tested on: SDF1; assay: Micro-array analysis of chemokine binding peptides: SDF1 (isoform not given)
Sequence of SDF1 (P48061 22-89 limits assumed): as the sequence (P48061 22-89 limits assumed) above
Experimental: as §2, §3, §4, §5, §6, §7, §8, §9, §10, §11, §12

Substance | binding to Exodus-2, stated in words [1] | binding to SDF1-β, stated in words [2] | binding to TECK, stated in words [3] | binding to I-TAC with relatively high affinity (Relative Fluorescence Units) [4] | binding to SDF1-α, stated in words [5] | binding to C-TAC, stated in words [6] | binding to IP-10 with relatively high affinity (Relative Fluorescence Units) [7] | binding to Eotaxin 3 with relatively high affinity (Relative Fluorescence Units) [8] | binding to BCA-1, stated in words [9] | binding to IL-8 with relatively high affinity (Relative Fluorescence Units) [10] | binding to I-309 with relatively high affinity (Relative Fluorescence Units) [11] | binding to Fractalkine, stated in words [12] | binding to Mig with relatively high affinity (Relative Fluorescence Units) [13] | binding to MCP-4 with relatively high affinity (Relative Fluorescence Units) [14] | binding to MCP-2 with relatively high affinity (Relative Fluorescence Units) [15] | binding to Lymphotactin, stated in words [16] | binding to Eotaxin with relatively high affinity (Relative Fluorescence Units) [17] | binding to SDF1 (isoform not given), stated in words [18]
NAMCK (listed as Homo sapiens) [Ph-p8.11] | bound | bound | bound | > 10,000 RFU | bound | bound | > 10,000 RFU | > 10,000 RFU | bound |  |  |  |  |  |  |  |  | 
WVFG (listed as Homo sapiens) [Ph-p8.4] |  |  | bound | > 15,000 RFU |  |  | > 15,000 RFU | > 15,000 RFU | bound | > 15,000 RFU | > 15,000 RFU | bound | > 15,000 RFU | > 15,000 RFU | > 15,000 RFU | bound | > 15,000 RFU | bound
